The domain aggregation screens of Martell et al. (2025)

Test: soluble fraction after stress (log2 fold change); higher = more stays soluble; pooled small domains, quantitative proteomics
Conditions: stress: 50 degC
Procedure, shortened: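 Pooled custom libraries of small protein domains were measured in a high-throughput format, with quantitative proteomics as the read-out. Each library was stressed at 50°C. Aggregation propensity is given as the base-two logarithm of the fold change in how much of each protein stays soluble after the stress. Higher values mean a larger share of the protein remains in solution.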

Row | Sequence | soluble fraction (log2)
1 | HMDHTYKHIELTGSSEKGIEEAVQNALAKASESVQNMRWLEVTDTRGHIEDGRVAHWQVTVKVGFTL | -0.0248
2 | HMDHVEDRMVLEVVLKKLTEEERRIVMLHAVSGLKHREIAKALDIPLSTVLSKYKRTLKKLEAYLMEME | -1.78
3 | HMDIADKLTKREFEIFIAIAMNKSRFDIANELGLSAKTVSNGLTVIKRKLNAVPSQFSAIAAKHGYIG | -2.66
4 | HMDIAYFSNAELNDAFIQFLNMRQEAGKQLNGYQIQILTEKLERVADTDEDRISAVKNAIAGGWSNFYPPK | -0.272
5 | HMDIDASEVRGIISQYINEPDGRVSYILETIQKKYRYLPEEAIRIVAQELEVPLTQLFGVATFYAAFSL | 0.0443
6 | HMDIDLNTIKKITLDDIHAFLSYLTTTYHSKAATRARKASSIRVFFNYLSAKANLIEVNPAQNLETPKLD | 0.0581
7 | HMDIEELLSRSTDRLSRQTEIRRLLADAQGRPNISSLARRFKVARRTVIRDLQELIRRGEVPPEIYPK | -0.744
8 | HMDIEFSDELRTFIDEWSKKEGGLVMMLHRIQNEYGFIPRTAAEKLSLISGIPLARIYGVITFYHFFKT | -0.461
9 | HMDIGNKIKELRTEQKMTQSDLAERLGVTKSSISSYENGSRLPSYDILLKIARIFKVSTDILLG | 0.514
10 | HMDIGTRQRIIAAAMELFRQKGMDGMSMRELAERAGVNKGLLHYYFTTKEAIFREVFVHQVEM | -0.15
11 | HMDIIIEEGIDESLSTDDAILDLLGRASDAFSNAQKALLEGDLGSYQKLIEQAERLVKKATELLGENN | -0.0938
12 | HMDIMNNILINRIKKILTEQNMSKADLSRLTGISNSSLSEYLNGKYEPKQDKIALIAKALHVSPAWLMGF | -0.915
13 | HMDINNTNFSRDVDNLLQNEEFIKWRIFRTKEWEDYWENFRKENPHMEDALQEAISRFNAVK | 0.156
14 | HMDINVDILPLLKTMTDTLRKVIELDIPFLKDARVQRVNSLDELLLRADITTAEKFRKVFEAYQIEADFGK | -0.804
15 | HMDIPDIGHNVRIEVDGHNGKTTHEGIILHPAAPNHITIKLANGYNASYKLEEIINIEILGELGDDSKI | -0.0692
16 | HMDIPITFEQLPAKAQAFVKQYFKIEEIASVWRDDDIHDQDYKVYFNDGSEIEFYANGDWEEV | -0.62
17 | HMDIPTSAEAVRAYLASGFIKGIGEATARMLVDKFGAETLEIIKTEPMKLTKISGIGPKKAKMIHESYLEK | 0.177
18 | HMDIRLMPGTVLTREYQGIEHRVTVAQDGQYEFEGRRYPSLSMIAREITGTRWSGPLFFGVK | -0.657
19 | HMDISEIEKRLLDFLEMPRSRKEIAEHLGIRTISYAIQTYITPLIDKKLVKMTIPESPRSHSQQYVRIN | -0.92
20 | HMDISRMNLSQTERAVLSVLDSQPLHTEEIIASADLRAGAIHSALISLQLKGLIKQLPGNLYVK | -0.0722
21 | HMDITKPKISFEPGEMVRVVDGPFNDFSGVVEEVNYEKSKVRVAVLIFGRSTPVELQFNQIEK | -0.252
22 | HMDITTIIADVPGPKTQIKVDIKNTSLHIFGGMNFKKEIDIGDNKEIINIKYINGTLTVKLKT | 0.089
23 | HMDIVGAINKIESMKQDRYLAMHPYSITHSADGYYRTYLPADDGKRKQIKKKSKSDLEKVVIDYWTKRS | 0.0365
24 | HMDIVKVYTTARAGETLASVAKRTGVDVARLAQWNDIPLKRAKQKLKTGKALALWVQREHASAYSNAPP | -0.151
25 | HMDIVQLSEKINVMKMEIPAQAIGKTVLEVNFRARFDLNIIAIENGGKLVEVIKPDYVFREGDILFLSGS | -1.16
26 | HMDIYENIDKELSKQGKSRRKLAIAAGIPPSTFQSMMERKRGLSVENLRKIAEVLNLKWYDLL | -0.195
27 | HMDIYKKFIIPATYFGSRLDHVLSELLPELSRSKIQNMIKQNLVMINGNHAAQKQKVVGDEEIIIKDI | -0.0556
28 | HMDKAALGQKLRQARLDKGYTQQSLSEKADIGEVYLSEIERGLKMPSMNLFIKLITALDISADYILR | -1.44
29 | HMDKDTFGEFENVKLTEEEYNKLVEKLGENNTKLMIEELSTGIASKGYKYKSHYATILSWSRRRVTKLQER | 0.0444
30 | HMDKEIKILKEKRLDDVQQAIRELSPQKRRVVEMKLYHNSTNQEVADKLAISVNTVKSLYTSALHDLRRIL | -0.139
